Results reported in the RNAGym collection of RNA variant scans (doi:10.1093/molbev/msab373).

B1: Azoarcus group I ribozyme (parent)
chain: GUGCCUUGCGCCGGGAAACCACGCAAGGGAUGGUGUCAAAUUCGGCGAAACCUAAGCGCCCGCCCGGGCGUAUGGCAACGCCGAGCCAAGCUUCGGCGCCUGCGCCGAUGAAGGUGUAGAGACUAGACGGCACCCACCUAAGGCAAACGCUAUGGUGAAGGCAUAGUCCAGGGAGUGGCGAAAGUCACACAAACCGG

Variants of: B1
Assay: reverse-splicing fitness (ratio to wild type); higher = more active; in vitro selection; Mg2+ level not given
How it was run: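 An in vitro group I ribozyme library with randomized positions was T7-transcribed and gel-purified. In triplicate, 10 pmol RNA in EPPS pH 7.5 was reacted with 50 pmoles of a 30-nt RNA substrate for 1 h at 37 °C across several added MgCl2 levels (1–48 mM), then stopped with EDTA. Products were reverse transcribed from a substrate-complementary primer, PCR-amplified and sequenced (HiSeq 4000). Fitness is a variant's read proportion after selection over that before, normalised to wild type.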
Work on C82G A111G A120G A145G C150G C169A U176G yielded a reverse-splicing fitness of 0.00881. For C82G A111G A120G A145G C150G C169G, the reverse-splicing fitness was 0.00845. Work on C82G A111G A120G A145G C150G C169G U176A yielded a reverse-splicing fitness of 0.0111. With C82G A111G A120G A145G C150G C169G U176C the reverse-splicing fitness was 0.0118. Variant C82G A111G A120G A145G C150G C169G U176G has a reverse-splicing fitness of 0.0063. C82G A111G A120G A145G C150G C169U showed a reverse-splicing fitness of 0.00986. Work on C82G A111G A120G A145G C150G C169U U176A yielded a reverse-splicing fitness of 0.0127. For C82G A111G A120G A145G C150G C169U U176C, the reverse-splicing fitness was 0.0129. Work on C82G A111G A120G A145G C150G C169U U176G yielded a reverse-splicing fitness of 0.00812. With C82G A111G A120G A145G C150G U176A the reverse-splicing fitness was 0.00718. With C82G A111G A120G A145G C150G U176C the reverse-splicing fitness was 0.0114. Work on C82G A111G A120G A145G C150G U176G yielded a reverse-splicing fitness of 0.00608. In the case of C82G A111G A120G A145G C150U, the reverse-splicing fitness is reported as 0.0167. In the case of C82G A111G A120G A145G C150U C169A, the reverse-splicing fitness is reported as 0.0144. Variant C82G A111G A120G A145G C150U C169A U176A has a reverse-splicing fitness of 0.0163. C82G A111G A120G A145G C150U C169A U176C gave a reverse-splicing fitness of 0.0177. C82G A111G A120G A145G C150U C169A U176G showed a reverse-splicing fitness of 0.00616. In the case of C82G A111G A120G A145G C150U C169G, the reverse-splicing fitness is reported as 0.0181. In the case of C82G A111G A120G A145G C150U C169G U176A, the reverse-splicing fitness is reported as 0.0139. C82G A111G A120G A145G C150U C169G U176C showed a reverse-splicing fitness of 0.0201. In the case of C82G A111G A120G A145G C150U C169G U176G, the reverse-splicing fitness is reported as 0.00532. With C82G A111G A120G A145G C150U C169U the reverse-splicing fitness was 0.0141. In the case of C82G A111G A120G A145G C150U C169U U176A, the reverse-splicing fitness is reported as 0.0177. With C82G A111G A120G A145G C150U C169U U176C the reverse-splicing fitness was 0.0177. C82G A111G A120G A145G C150U C169U U176G showed a reverse-splicing fitness of 0.00668. Work on C82G A111G A120G A145G C150U U176A yielded a reverse-splicing fitness of 0.0115. Work on C82G A111G A120G A145G C150U U176C yielded a reverse-splicing fitness of 0.0189. For C82G A111G A120G A145G C150U U176G, the reverse-splicing fitness was 0.00823. C82G A111G A120G A145G C169A showed a reverse-splicing fitness of 0.0141. Variant C82G A111G A120G A145G C169A U176A has a reverse-splicing fitness of 0.0166. With C82G A111G A120G A145G C169A U176C the reverse-splicing fitness was 0.0235. C82G A111G A120G A145G C169A U176G showed a reverse-splicing fitness of 0.00443. C82G A111G A120G A145G C169G showed a reverse-splicing fitness of 0.0197. Variant C82G A111G A120G A145G C169G U176A has a reverse-splicing fitness of 0.0184. In the case of C82G A111G A120G A145G C169G U176C, the reverse-splicing fitness is reported as 0.0248. C82G A111G A120G A145G C169G U176G gave a reverse-splicing fitness of 0.0045. C82G A111G A120G A145G C169U gave a reverse-splicing fitness of 0.0134. C82G A111G A120G A145G C169U U176A gave a reverse-splicing fitness of 0.0188. Work on C82G A111G A120G A145G C169U U176C yielded a reverse-splicing fitness of 0.019. With C82G A111G A120G A145G C169U U176G the reverse-splicing fitness was 0.00529. In the case of C82G A111G A120G A145G U176A, the reverse-splicing fitness is reported as 0.0129. Variant C82G A111G A120G A145G U176C has a reverse-splicing fitness of 0.0204. In the case of C82G A111G A120G A145G U176G, the reverse-splicing fitness is reported as 0.00696. With C82G A111G A120G A145U the reverse-splicing fitness was 0.0198. With C82G A111G A120G A145U C150A the reverse-splicing fitness was 0.00906. For C82G A111G A120G A145U C150A C169A, the reverse-splicing fitness was 0.0096. For C82G A111G A120G A145U C150A C169A U176A, the reverse-splicing fitness was 0.0175. For C82G A111G A120G A145U C150A C169A U176C, the reverse-splicing fitness was 0.0159. In the case of C82G A111G A120G A145U C150A C169A U176G, the reverse-splicing fitness is reported as 0.00495. For C82G A111G A120G A145U C150A C169G, the reverse-splicing fitness was 0.00924. Variant C82G A111G A120G A145U C150A C169G U176A has a reverse-splicing fitness of 0.017. Variant C82G A111G A120G A145U C150A C169G U176C has a reverse-splicing fitness of 0.0174. With C82G A111G A120G A145U C150A C169G U176G the reverse-splicing fitness was 0.00454. C82G A111G A120G A145U C150A C169U showed a reverse-splicing fitness of 0.00794. Variant C82G A111G A120G A145U C150A C169U U176A has a reverse-splicing fitness of 0.0196. With C82G A111G A120G A145U C150A C169U U176C the reverse-splicing fitness was 0.0177. Work on C82G A111G A120G A145U C150A C169U U176G yielded a reverse-splicing fitness of 0.00582. Work on C82G A111G A120G A145U C150A U176A yielded a reverse-splicing fitness of 0.014. Variant C82G A111G A120G A145U C150A U176C has a reverse-splicing fitness of 0.0191. In the case of C82G A111G A120G A145U C150A U176G, the reverse-splicing fitness is reported as 0.00563. C82G A111G A120G A145U C150G showed a reverse-splicing fitness of 0.00774. C82G A111G A120G A145U C150G C169A gave a reverse-splicing fitness of 0.01. Work on C82G A111G A120G A145U C150G C169A U176A yielded a reverse-splicing fitness of 0.0118. Work on C82G A111G A120G A145U C150G C169A U176C yielded a reverse-splicing fitness of 0.0133. Work on C82G A111G A120G A145U C150G C169A U176G yielded a reverse-splicing fitness of 0.00555. In the case of C82G A111G A120G A145U C150G C169G, the reverse-splicing fitness is reported as 0.00827. With C82G A111G A120G A145U C150G C169G U176A the reverse-splicing fitness was 0.00751. Work on C82G A111G A120G A145U C150G C169G U176C yielded a reverse-splicing fitness of 0.00676. With C82G A111G A120G A145U C150G C169G U176G the reverse-splicing fitness was 0.00457. Work on C82G A111G A120G A145U C150G C169U yielded a reverse-splicing fitness of 0.00943. In the case of C82G A111G A120G A145U C150G C169U U176A, the reverse-splicing fitness is reported as 0.0117. C82G A111G A120G A145U C150G C169U U176C showed a reverse-splicing fitness of 0.0149. Work on C82G A111G A120G A145U C150G C169U U176G yielded a reverse-splicing fitness of 0.00523. C82G A111G A120G A145U C150G U176A showed a reverse-splicing fitness of 0.00801. For C82G A111G A120G A145U C150G U176C, the reverse-splicing fitness was 0.0158. Variant C82G A111G A120G A145U C150G U176G has a reverse-splicing fitness of 0.00436. With C82G A111G A120G A145U C150U the reverse-splicing fitness was 0.0155. With C82G A111G A120G A145U C150U C169A the reverse-splicing fitness was 0.0123. Variant C82G A111G A120G A145U C150U C169A U176A has a reverse-splicing fitness of 0.0154. Work on C82G A111G A120G A145U C150U C169A U176C yielded a reverse-splicing fitness of 0.0159. For C82G A111G A120G A145U C150U C169A U176G, the reverse-splicing fitness was 0.00619. Variant C82G A111G A120G A145U C150U C169G has a reverse-splicing fitness of 0.0148. C82G A111G A120G A145U C150U C169G U176A showed a reverse-splicing fitness of 0.0161.
